From CN116640222A
Substitutions are numbered along the chain they refer to.

Legend:
[1] = target: DNP-BSA (UniProt P02769); assay: indirect ELISA, DNP-BSA coated 3 ug/ml, antibody at 125 ng/ml
[2] = target: DNP-BSA (UniProt P02769); assay: indirect ELISA, DNP-BSA coated 3 ug/ml, antibody at 31.25 ng/ml
[3] = target: DNP-BSA (UniProt P02769); assay: indirect ELISA, DNP-BSA coated 3 ug/ml, antibody at 15.625 ng/ml
[4] = target: DNP-BSA (UniProt P02769); assay: indirect ELISA, DNP-BSA coated 3 ug/ml, antibody at 62.5 ng/ml
[5] = target: DNP-BSA (UniProt P02769); assay: BLI, antibody captured on AMC sensor, DNP-BSA in solution
[6] = target: DNP-BSA (UniProt P02769); assay: indirect ELISA, DNP-BSA coated 3 ug/ml, antibody at 7.813 ng/ml
[7] = target: DNP-BSA (UniProt P02769); assay: indirect ELISA on DNP-BSA, antibody stored 21 days at 4 C, at 15.625 ng/ml
[8] = target: DNP-BSA (UniProt P02769); assay: indirect ELISA on DNP-BSA, antibody stored 21 days at 4 C, at 125 ng/ml
[9] = target: DNP-BSA (UniProt P02769); assay: indirect ELISA on DNP-BSA, antibody stored 21 days at -80 C, at 15.625 ng/ml
[10] = target: DNP-BSA (UniProt P02769); assay: indirect ELISA on DNP-BSA, antibody stored 21 days at 37 C, at 15.625 ng/ml
[11] = target: DNP-BSA (UniProt P02769); assay: indirect ELISA on DNP-BSA, antibody stored 21 days at 37 C, at 125 ng/ml
[12] = target: DNP-BSA (UniProt P02769); assay: indirect ELISA on DNP-BSA, antibody stored 21 days at -80 C, at 125 ng/ml

UniProt P02769, sequence (P02769 25-607 limits assumed, form in doubt): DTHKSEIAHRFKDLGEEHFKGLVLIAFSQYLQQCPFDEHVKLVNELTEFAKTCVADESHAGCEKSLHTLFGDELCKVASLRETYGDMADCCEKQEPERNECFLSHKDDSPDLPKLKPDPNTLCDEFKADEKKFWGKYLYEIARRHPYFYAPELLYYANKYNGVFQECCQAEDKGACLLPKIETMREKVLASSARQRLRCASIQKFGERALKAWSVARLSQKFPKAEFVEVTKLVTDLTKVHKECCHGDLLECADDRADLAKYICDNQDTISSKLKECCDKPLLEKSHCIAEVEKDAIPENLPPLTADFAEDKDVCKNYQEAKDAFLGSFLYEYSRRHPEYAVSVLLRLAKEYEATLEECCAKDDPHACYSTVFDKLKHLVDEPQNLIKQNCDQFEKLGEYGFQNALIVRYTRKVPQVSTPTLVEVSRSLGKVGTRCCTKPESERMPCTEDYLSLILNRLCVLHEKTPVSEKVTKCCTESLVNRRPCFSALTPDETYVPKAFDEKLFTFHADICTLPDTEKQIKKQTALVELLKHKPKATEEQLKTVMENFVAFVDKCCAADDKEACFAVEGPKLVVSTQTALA

对照 (antibody)
OD (450 nm, ref 630 nm) [1]: 2.37 OD | OD (450 nm, ref 630 nm) [2]: 0.949 OD | OD (450 nm, ref 630 nm) [3]: 0.375 OD | OD (450 nm, ref 630 nm) [4]: 1.53 OD | Kd [5]: 2.57 nM | koff [5]: 0.00055 s⁻¹ | kon [5]: 214000 M⁻¹ s⁻¹ | OD (450 nm, ref 630 nm) [6]: 0.229 OD

B1: Anti-DNP-6G1mut2 (antibody, mouse IgG1, V domains shown)
VH: EVQLQESGPSLVKPSQTLSLTCSVTGDSIITGYWNWIRKFPGNKLEFMGYISYSGRTYYNPSLKSRVSITRDTSKNQYYLQLSSVTTEDAATYYCTRWTTAYFGIDSWGQGISVTVSS
VL: QAVVTQESALTTSPGGTVILTCRSSTGAVTTSNNANWVQEKPDHLFTGLIGGTSNRAPGVPVRFSGSLIGDKAALTITGAQTEDDAMYFCALWYSTHYVFGGGTKVTVLG
OD (450 nm, ref 630 nm) [1]: 2.28 OD | OD (450 nm, ref 630 nm) [2]: 1.61 OD | OD (450 nm, ref 630 nm) [3]: 0.987 OD | OD (450 nm, ref 630 nm) [4]: 2.17 OD | Kd [5]: 0.287 nM | koff [5]: 0.00039 s⁻¹ | kon [5]: 1.36e+06 M⁻¹ s⁻¹ | OD (450 nm, ref 630 nm) [6]: 0.516 OD

B2: Anti-DNP-6G1mut1 (antibody, mouse IgG1, V domains shown)
VH: B1 VH
VL: B1 VL with L92I
OD (450 nm, ref 630 nm) [7]: 0.991 OD | OD (450 nm, ref 630 nm) [1]: 2.25 OD | OD (450 nm, ref 630 nm) [8]: 2.21 OD | OD (450 nm, ref 630 nm) [9]: 0.977 OD | OD (450 nm, ref 630 nm) [10]: 0.985 OD | OD (450 nm, ref 630 nm) [11]: 2.26 OD | OD (450 nm, ref 630 nm) [2]: 1.69 OD | OD (450 nm, ref 630 nm) [12]: 2.24 OD | OD (450 nm, ref 630 nm) [3]: 0.96 OD | OD (450 nm, ref 630 nm) [4]: 1.95 OD | Kd [5]: 0.168 nM | koff [5]: 0.00042 s⁻¹ | kon [5]: 2.5e+06 M⁻¹ s⁻¹ | OD (450 nm, ref 630 nm) [6]: 0.504 OD
